# Target: AHNAK1, Q09666
# Assay: holdup assay
# Design: key: below the threshold = too weak to quantify, mostly under pKd 3.1 to 4
# Conditions: plain residues with an end cap or a label only (N-terminal biotin on a linker: ado-ado)
# Chain of AHNAK1, Q09666 (Q09666 4-100): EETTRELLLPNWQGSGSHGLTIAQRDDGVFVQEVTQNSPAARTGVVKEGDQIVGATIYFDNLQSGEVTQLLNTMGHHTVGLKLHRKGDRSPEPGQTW
row,Binder,pKd
1,"IPLDGETEEL [MYOZ1, Q9NP98]",below the threshold
2,"RHGSCVETSL [TMEM151B, Q8IW70]",below the threshold

# Target: DLG4_3, P78352
# Assay: holdup assay
# Design: key: below the threshold = too weak to quantify, mostly under pKd 3.1 to 4
# Conditions: plain residues with an end cap or a label only (N-terminal biotin on a linker: ado-ado)
# Chain of DLG4_3, P78352 (P78352 306-403): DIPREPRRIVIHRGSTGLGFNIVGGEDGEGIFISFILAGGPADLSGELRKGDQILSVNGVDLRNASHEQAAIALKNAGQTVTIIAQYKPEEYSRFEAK
row,Binder,pKd
1,"IPLDGETEEL [MYOZ1, Q9NP98]",below the threshold
2,"RHGSCVETSL [TMEM151B, Q8IW70]",4.11

# Target: GRIP2_3, Q9C0E4
# Sequence (Q9C0E4 238-339): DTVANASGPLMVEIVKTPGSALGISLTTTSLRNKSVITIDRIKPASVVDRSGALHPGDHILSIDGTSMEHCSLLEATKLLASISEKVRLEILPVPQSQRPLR
# Assay: holdup assay
# Design: key: below the threshold = too weak to quantify, mostly under pKd 3.1 to 4
# Conditions: plain residues with an end cap or a label only (N-terminal biotin on a linker: ado-ado)
row,Binder,pKd
1,"IPLDGETEEL [MYOZ1, Q9NP98]",below the threshold
2,"RHGSCVETSL [TMEM151B, Q8IW70]",below the threshold

# Target: PDZRN4_1, Q6ZMN7
# Sequence (Q6ZMN7 213-318): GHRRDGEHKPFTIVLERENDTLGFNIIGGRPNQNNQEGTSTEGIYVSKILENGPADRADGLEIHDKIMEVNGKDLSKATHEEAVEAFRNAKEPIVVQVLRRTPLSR
# Assay: holdup assay
# Design: key: below the threshold = too weak to quantify, mostly under pKd 3.1 to 4
# Conditions: plain residues with an end cap or a label only (N-terminal biotin on a linker: ado-ado)
row,Binder,pKd
1,"IPLDGETEEL [MYOZ1, Q9NP98]",below the threshold
2,"RHGSCVETSL [TMEM151B, Q8IW70]",5.27

# Target: FRMPD3, Q5JV73
# Sequence (Q5JV73 12-100): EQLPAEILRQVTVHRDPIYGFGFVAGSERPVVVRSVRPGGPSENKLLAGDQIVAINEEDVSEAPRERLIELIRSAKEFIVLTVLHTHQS
# Assay: holdup assay
# Design: key: below the threshold = too weak to quantify, mostly under pKd 3.1 to 4
# Conditions: plain residues with an end cap or a label only (N-terminal biotin on a linker: ado-ado)
row,Binder,pKd
1,"IPLDGETEEL [MYOZ1, Q9NP98]",below the threshold
2,"RHGSCVETSL [TMEM151B, Q8IW70]",3.5

# Target: T1, SYNJ2BP, P57105
# T1 sequence (P57105 8-110, limits assumed, looked up): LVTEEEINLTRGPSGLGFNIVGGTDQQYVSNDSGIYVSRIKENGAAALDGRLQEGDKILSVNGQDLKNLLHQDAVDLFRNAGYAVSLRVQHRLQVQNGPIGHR
# Assay: holdup assay
# Design: key: below the threshold = too weak to quantify, mostly under pKd 3.1 to 4
# Conditions: plain residues with an end cap or a label only (N-terminal biotin on a linker: ado-ado)
row,Binder,pKd
1,"IPLDGETEEL [MYOZ1, Q9NP98]",below the threshold
2,"RHGSCVETSL [TMEM151B, Q8IW70]",5.1

# Target: MAGI2_4, Q86UL8
# Sequence (Q86UL8 772-865): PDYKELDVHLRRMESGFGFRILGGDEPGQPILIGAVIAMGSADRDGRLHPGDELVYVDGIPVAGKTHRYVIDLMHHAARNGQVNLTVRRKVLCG
# Assay: holdup assay
# Design: key: below the threshold = too weak to quantify, mostly under pKd 3.1 to 4
# Conditions: plain residues with an end cap or a label only (N-terminal biotin on a linker: ado-ado)
row,Binder,pKd
1,"IPLDGETEEL [MYOZ1, Q9NP98]",below the threshold
2,"RHGSCVETSL [TMEM151B, Q8IW70]",below the threshold

# Target: SCRIB_2, Q14160
# Sequence (Q14160 857-960): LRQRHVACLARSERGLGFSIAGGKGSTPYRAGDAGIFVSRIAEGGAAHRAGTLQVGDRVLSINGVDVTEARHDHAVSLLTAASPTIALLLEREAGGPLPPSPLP
# Assay: holdup assay
# Design: key: below the threshold = too weak to quantify, mostly under pKd 3.1 to 4
# Conditions: plain residues with an end cap or a label only (N-terminal biotin on a linker: ado-ado)
row,Binder,pKd
1,"IPLDGETEEL [MYOZ1, Q9NP98]",below the threshold
2,"RHGSCVETSL [TMEM151B, Q8IW70]",4.43

# Target: MAGI2_2, Q86UL8
# Sequence (Q86UL8 410-522): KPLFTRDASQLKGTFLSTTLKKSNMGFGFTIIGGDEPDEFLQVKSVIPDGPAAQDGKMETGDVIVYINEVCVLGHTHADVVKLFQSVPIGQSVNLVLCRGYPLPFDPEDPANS
# Assay: holdup assay
# Design: key: below the threshold = too weak to quantify, mostly under pKd 3.1 to 4
# Conditions: plain residues with an end cap or a label only (N-terminal biotin on a linker: ado-ado)
row,Binder,pKd
1,"IPLDGETEEL [MYOZ1, Q9NP98]",below the threshold
2,"RHGSCVETSL [TMEM151B, Q8IW70]",3.66

# Target: TJP2_1, Q9UDY2
# Sequence (Q9UDY2 24-128): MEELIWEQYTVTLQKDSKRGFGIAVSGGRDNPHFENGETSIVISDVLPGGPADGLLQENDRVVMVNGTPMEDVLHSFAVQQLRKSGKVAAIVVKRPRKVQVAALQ
# Assay: holdup assay
# Design: key: below the threshold = too weak to quantify, mostly under pKd 3.1 to 4
# Conditions: plain residues with an end cap or a label only (N-terminal biotin on a linker: ado-ado)
row,Binder,pKd
1,"IPLDGETEEL [MYOZ1, Q9NP98]",below the threshold
2,"RHGSCVETSL [TMEM151B, Q8IW70]",below the threshold

# Target: T2, GRIP1_3, Q9Y3R0
# T2 sequence (Q9Y3R0 247-346, limits assumed, looked up): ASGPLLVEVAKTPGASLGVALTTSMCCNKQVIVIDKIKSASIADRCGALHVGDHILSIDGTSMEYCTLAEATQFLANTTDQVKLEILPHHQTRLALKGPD
# Assay: holdup assay
# Design: key: below the threshold = too weak to quantify, mostly under pKd 3.1 to 4
# Conditions: plain residues with an end cap or a label only (N-terminal biotin on a linker: ado-ado)
row,Binder,pKd
1,"IPLDGETEEL [MYOZ1, Q9NP98]",below the threshold
2,"RHGSCVETSL [TMEM151B, Q8IW70]",below the threshold

# Target: SCRIB_1, Q14160
# Sequence (Q14160 718-814): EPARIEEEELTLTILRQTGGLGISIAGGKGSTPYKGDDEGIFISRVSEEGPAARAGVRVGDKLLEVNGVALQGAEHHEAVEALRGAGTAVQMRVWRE
# Assay: holdup assay
# Design: key: below the threshold = too weak to quantify, mostly under pKd 3.1 to 4
# Conditions: plain residues with an end cap or a label only (N-terminal biotin on a linker: ado-ado)
row,Binder,pKd
1,"IPLDGETEEL [MYOZ1, Q9NP98]",below the threshold
2,"RHGSCVETSL [TMEM151B, Q8IW70]",5.5

# Target: T3, TJP3_3, O95049
# T3 sequence (O95049 375-456, limits assumed, looked up): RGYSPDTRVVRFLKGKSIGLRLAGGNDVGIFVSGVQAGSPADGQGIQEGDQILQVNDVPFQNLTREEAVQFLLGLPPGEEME
# Assay: holdup assay
# Design: key: below the threshold = too weak to quantify, mostly under pKd 3.1 to 4
# Conditions: plain residues with an end cap or a label only (N-terminal biotin on a linker: ado-ado)
row,Binder,pKd
1,"IPLDGETEEL [MYOZ1, Q9NP98]",below the threshold
2,"RHGSCVETSL [TMEM151B, Q8IW70]",below the threshold

# Target: T4, GRIP1_5, Q9Y3R0
# T4 sequence (Q9Y3R0 568-668, limits assumed, looked up): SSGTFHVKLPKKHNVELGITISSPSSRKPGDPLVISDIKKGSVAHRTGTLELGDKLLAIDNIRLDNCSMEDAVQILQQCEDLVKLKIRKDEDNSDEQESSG
# Assay: holdup assay
# Design: key: below the threshold = too weak to quantify, mostly under pKd 3.1 to 4
# Conditions: plain residues with an end cap or a label only (N-terminal biotin on a linker: ado-ado)
row,Binder,pKd
1,"IPLDGETEEL [MYOZ1, Q9NP98]",below the threshold
2,"RHGSCVETSL [TMEM151B, Q8IW70]",below the threshold

# Target: GRID2IP_1, A4D2P6
# Sequence (A4D2P6 1-87): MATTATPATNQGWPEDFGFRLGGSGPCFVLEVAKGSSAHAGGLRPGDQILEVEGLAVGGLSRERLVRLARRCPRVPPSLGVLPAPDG
# Assay: holdup assay
# Design: key: below the threshold = too weak to quantify, mostly under pKd 3.1 to 4
# Conditions: plain residues with an end cap or a label only (N-terminal biotin on a linker: ado-ado)
row,Binder,pKd
1,"IPLDGETEEL [MYOZ1, Q9NP98]",below the threshold
2,"RHGSCVETSL [TMEM151B, Q8IW70]",below the threshold

# Target: T5, CARD11, Q9BXL7
# T5 sequence (Q9BXL7 662-765, limits assumed, looked up): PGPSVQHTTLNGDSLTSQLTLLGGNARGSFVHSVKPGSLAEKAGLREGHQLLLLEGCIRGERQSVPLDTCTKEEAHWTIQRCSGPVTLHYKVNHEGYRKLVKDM
# Assay: holdup assay
# Design: key: below the threshold = too weak to quantify, mostly under pKd 3.1 to 4
# Conditions: plain residues with an end cap or a label only (N-terminal biotin on a linker: ado-ado)
row,Binder,pKd
1,"IPLDGETEEL [MYOZ1, Q9NP98]",below the threshold
2,"RHGSCVETSL [TMEM151B, Q8IW70]",below the threshold

# Target: T6, LIN7C, Q9NUP9
# T6 sequence (Q9NUP9 88-185, limits assumed, looked up): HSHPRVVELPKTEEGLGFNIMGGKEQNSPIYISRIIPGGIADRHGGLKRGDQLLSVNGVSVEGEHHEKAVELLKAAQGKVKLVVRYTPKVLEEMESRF
# Assay: holdup assay
# Design: key: below the threshold = too weak to quantify, mostly under pKd 3.1 to 4
# Conditions: plain residues with an end cap or a label only (N-terminal biotin on a linker: ado-ado)
row,Binder,pKd
1,"IPLDGETEEL [MYOZ1, Q9NP98]",below the threshold
2,"RHGSCVETSL [TMEM151B, Q8IW70]",4.43

# Target: LAP2, Q96RT1
# Sequence (Q96RT1 other isoform, or with tags, fused parts or gaps): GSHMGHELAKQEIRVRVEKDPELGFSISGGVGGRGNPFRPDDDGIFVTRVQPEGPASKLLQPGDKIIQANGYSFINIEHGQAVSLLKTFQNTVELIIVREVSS
# Assay: holdup assay
# Design: key: below the threshold = too weak to quantify, mostly under pKd 3.1 to 4
# Conditions: plain residues with an end cap or a label only (N-terminal biotin on a linker: ado-ado)
row,Binder,pKd
1,"IPLDGETEEL [MYOZ1, Q9NP98]",below the threshold
2,"RHGSCVETSL [TMEM151B, Q8IW70]",3.94

# Target: HTRA2, O43464
# Sequence (O43464 355-458): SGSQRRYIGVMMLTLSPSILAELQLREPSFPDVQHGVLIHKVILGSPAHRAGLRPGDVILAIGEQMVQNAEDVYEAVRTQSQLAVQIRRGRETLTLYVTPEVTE
# Assay: holdup assay
# Design: key: below the threshold = too weak to quantify, mostly under pKd 3.1 to 4
# Conditions: plain residues with an end cap or a label only (N-terminal biotin on a linker: ado-ado)
row,Binder,pKd
1,"IPLDGETEEL [MYOZ1, Q9NP98]",below the threshold
2,"RHGSCVETSL [TMEM151B, Q8IW70]",below the threshold

# Target: T7, GRIP1_2, Q9Y3R0
# T7 sequence (Q9Y3R0 145-248, limits assumed, looked up): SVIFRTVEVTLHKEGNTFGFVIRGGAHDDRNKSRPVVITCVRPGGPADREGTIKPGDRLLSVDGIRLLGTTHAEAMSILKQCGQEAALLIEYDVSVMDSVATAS
# Assay: holdup assay
# Design: key: below the threshold = too weak to quantify, mostly under pKd 3.1 to 4
# Conditions: plain residues with an end cap or a label only (N-terminal biotin on a linker: ado-ado)
row,Binder,pKd
1,"IPLDGETEEL [MYOZ1, Q9NP98]",below the threshold
2,"RHGSCVETSL [TMEM151B, Q8IW70]",below the threshold

# Target: GORASP2, Q9H8Y8
# Assay: holdup assay
# Design: key: below the threshold = too weak to quantify, mostly under pKd 3.1 to 4
# Conditions: plain residues with an end cap or a label only (N-terminal biotin on a linker: ado-ado)
row,Binder,pKd
1,"IPLDGETEEL [MYOZ1, Q9NP98]",below the threshold
2,"RHGSCVETSL [TMEM151B, Q8IW70]",below the threshold

# Target: GRIP2_7, Q9C0E4
# Sequence (Q9C0E4 934-1023): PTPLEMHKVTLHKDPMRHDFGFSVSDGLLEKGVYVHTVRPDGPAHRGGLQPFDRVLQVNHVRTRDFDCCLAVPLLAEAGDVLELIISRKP
# Assay: holdup assay
# Design: key: below the threshold = too weak to quantify, mostly under pKd 3.1 to 4
# Conditions: plain residues with an end cap or a label only (N-terminal biotin on a linker: ado-ado)
row,Binder,pKd
1,"IPLDGETEEL [MYOZ1, Q9NP98]",below the threshold
2,"RHGSCVETSL [TMEM151B, Q8IW70]",below the threshold

# Target: DLG1_3, Q12959
# Sequence (Q12959 457-571): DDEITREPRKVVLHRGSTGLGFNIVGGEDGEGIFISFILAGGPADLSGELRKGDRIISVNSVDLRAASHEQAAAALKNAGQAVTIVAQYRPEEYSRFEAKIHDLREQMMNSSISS
# Assay: holdup assay
# Design: key: below the threshold = too weak to quantify, mostly under pKd 3.1 to 4
# Conditions: plain residues with an end cap or a label only (N-terminal biotin on a linker: ado-ado)
row,Binder,pKd
1,"IPLDGETEEL [MYOZ1, Q9NP98]",below the threshold
2,"RHGSCVETSL [TMEM151B, Q8IW70]",4.1

# Target: T8, DFNB31_3, Q9P202
# T8 sequence (Q9P202 811-907, limits assumed, looked up): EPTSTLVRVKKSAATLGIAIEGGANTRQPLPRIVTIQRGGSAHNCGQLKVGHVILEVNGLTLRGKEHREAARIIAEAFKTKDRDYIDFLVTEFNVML
# Assay: holdup assay
# Design: key: below the threshold = too weak to quantify, mostly under pKd 3.1 to 4
# Conditions: plain residues with an end cap or a label only (N-terminal biotin on a linker: ado-ado)
row,Binder,pKd
1,"IPLDGETEEL [MYOZ1, Q9NP98]",below the threshold
2,"RHGSCVETSL [TMEM151B, Q8IW70]",below the threshold

# Target: T9, MPP7, Q5T2T1
# T9 sequence (Q5T2T1 134-230, limits assumed, looked up): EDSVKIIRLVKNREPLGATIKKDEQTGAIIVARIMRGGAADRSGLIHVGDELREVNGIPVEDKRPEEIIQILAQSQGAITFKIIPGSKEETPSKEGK
# Assay: holdup assay
# Design: key: below the threshold = too weak to quantify, mostly under pKd 3.1 to 4
# Conditions: plain residues with an end cap or a label only (N-terminal biotin on a linker: ado-ado)
row,Binder,pKd
1,"IPLDGETEEL [MYOZ1, Q9NP98]",below the threshold
2,"RHGSCVETSL [TMEM151B, Q8IW70]",below the threshold

# Target: T10, APBA1_2, Q02410
# T10 sequence (Q02410 742-832, limits assumed, looked up): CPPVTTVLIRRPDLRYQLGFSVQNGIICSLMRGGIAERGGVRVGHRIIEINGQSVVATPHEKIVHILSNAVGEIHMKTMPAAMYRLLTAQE
# Assay: holdup assay
# Design: key: below the threshold = too weak to quantify, mostly under pKd 3.1 to 4
# Conditions: plain residues with an end cap or a label only (N-terminal biotin on a linker: ado-ado)
row,Binder,pKd
1,"IPLDGETEEL [MYOZ1, Q9NP98]",below the threshold
2,"RHGSCVETSL [TMEM151B, Q8IW70]",3.97

# Target: SNX27, Q96L92
# Assay: holdup assay
# Design: key: below the threshold = too weak to quantify, mostly under pKd 3.1 to 4
# Conditions: plain residues with an end cap or a label only (N-terminal biotin on a linker: ado-ado)
row,Binder,pKd
1,"IPLDGETEEL [MYOZ1, Q9NP98]",3.69
2,"RHGSCVETSL [TMEM151B, Q8IW70]",5.55

# Reference: publication PMC9482650, “Quantitative fragmentomics allow affinity mapping of interactomes” (Nature Communications, 2022)
